The values that follow come from paper PMC10699845, “Light quality regulates plant biomass and fruit quality through a photoreceptor-dependent HY5-LHC/CYCB module in tomato”.

Sequences and labels used below:
B1: SlCYCB-m probe (dsDNA)
DNA 1: ACGTGTTTATTTTTTACTTTAAGATTTTG
DNA 2: CAAAATCTTAAAGTAAAAAATAAACACGT
B2: SlLHCA-m probe (dsDNA)
DNA 1: CAAATTGGTGACATTTTACATTCTGGCA
DNA 2: TGCCAGAATGTAAAATGTCACCAATTTG
B3: SlLHCB-m probe (dsDNA)
DNA 1: CTGCTTAGTTGTTTTTCTTGTAATCCTC
DNA 2: GAGGATTACAAGAAAAACAACTAAGCAG
B4: SlCYCB probe (dsDNA)
DNA 1: ACGTGTTTATTTTTTACTTTAAGAACGTG
DNA 2: CACGTTCTTAAAGTAAAAAATAAACACGT
B5: SlLHCA probe (dsDNA)
DNA 1: CAAATTGGTGACAACGTACATTCTGGCA
DNA 2: TGCCAGAATGTACGTTGTCACCAATTTG
B6: SlLHCB probe (dsDNA)
DNA 1: CTGCTTAGTTGTACGTCTTGTAATCCTC
DNA 2: GAGGATTACAAGACGTACAACTAAGCAG

The target in the series is T1, SlHY5 (Solanum lycopersicum, UniProt Q9SM50 1-158).
T1 sequence: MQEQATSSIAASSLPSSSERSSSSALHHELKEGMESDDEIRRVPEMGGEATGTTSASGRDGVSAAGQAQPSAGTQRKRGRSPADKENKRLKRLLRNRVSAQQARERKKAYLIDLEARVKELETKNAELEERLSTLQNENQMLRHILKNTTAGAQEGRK
The experiment in a line: EMSA; LightShift Chemiluminescent EMSA kit (Thermo 20148); buffer, salt, pH and temperature not stated. Conditions: protein: recombinant, tags: His, chain copies: 2, blunt. (In general: In EMSA bound probe runs differently from free probe, usually more slowly.)
Consider B1, for which the binding result is given as “no binding”. Regarding B2, the binding result was “no binding”. The entry for B3 is “no binding”.

Consider B4, for which the binding result is on record as “binds”.

For B5, the binding result is “binds”. As for B6, the binding result is recorded as “binds”.
